From publication PMC4856805

Legend:
Experiment in all cases: SPR
[1] = molecular target: MEDI4212 2M2 (S239D/I332E) (human)
[2] = molecular target: MEDI4212 3M (S239D/A330L/I332E) (human)
MEDI4212 aFuc (human) = molecular target: MEDI4212 aFuc (human)
[3] = molecular target: MEDI4212 wild-type (WT) monoclonal antibody (human)

| Substance | Kd [1] | Kd [2] | Kd (MEDI4212 aFuc (human)) | Kd [3] |
| --- | --- | --- | --- | --- |
| Flag-tagged hFcγRIIIa (158V) (receptor) | 7 nM | 7 nM | 50 nM | 502 nM |
| Flag-tagged hFcγRIIIa (158F) (from UniProt P08637 17-254) (receptor) | 67 nM | 36 nM | 389 nM | 4960 nM |
